Reference: paper PMC9529537 (The Innovation, 2022)

What follows are binders tested against yellow fever virus soluble envelope (E) protein (Yellow fever virus, strain CNYF01/2016 …) (assay: crystal structure).

Binder	binding result
YD6 Fab (Fab, V domains shown) VH: EVQLVESGGGLVKPGGSLRLSCAASGFIFSDYYMMWIRQAPGKGLEWISYISSSGSQIYYTESVKGRFTISRDNGKNLLYLQMNSLRGEDTALYYCATETGWRIDTWGQGTLVTVSS VL: QAVLTQPASVSGSPGQSITISCTGTGSNIETYNLVSWYQRHPGKAPKLILYEVSERPSGVSNRFSGSKSGNTASLTISGLQAEDEADYFCCSYADTNIFWVFGGGTHLTVL	binds
YD6 scFv (scFv, V domains shown) VH: EVQLVESGGGLVKPGGSLRLSCAASGFIFSDYYMMWIRQAPGKGLEWISYISSSGSQIYYTESVKGRFTISRDNGKNLLYLQMNSLRGEDTALYYCATETGWRIDTWGQGTLVTVSS VL: QAVLTQPASVSGSPGQSITISCTGTGSNIETYNLVSWYQRHPGKAPKLILYEVSERPSGVSNRFSGSKSGNTASLTISGLQAEDEADYFCCSYADTNIFWVFGGGTHLTVL	binds
YD73 Fab (Fab, V domains shown) VH: QVQLVQSGAEVKKPGASVKVSCKASGYTFIAYGISWVRQAPGQGLEWMGWISAHNGNTNYAQKFQGRVTVTTDTTTRTAFMELRNLRSDDTAVYYCARAPWEYNYRSSGYYDSPYWGQGTLVTVSS VL: EIVLTQSPGTLSLSPGERATLSCRASQSVVSTYLAWYQQKPGQAPRLLIYDTSTRATGIPDRFSGSGSGTDFTLTISRLEPEDFAVYYCQHYDSSPPWTFGQGTKVEIK	binds
